# Laboratory results published in patent US20180155451A1 (published 2018).
# B1: GpH7-B3 variant S298_20W/GpL16-k0 (antibody, human IgG1, kappa)
# heavy: not shown
# light: DIVMTQSPLSLPVTPGEPASISCQASESLVHSNRNTYLHWYLQKPGQSPQLLIYKVSNRFSGVPDRFSGSGSGTDFTLKISRVEAEDVGVYYCSQNTHVPPTFGQGTKVEIERTVAAPSVFIFPPSDEQLKSGTASVVCLLNNFYPREAKVQWKVDNALQSGNSQESVTEQDSKDSTYSLSSTLTLSKADYEKHKVYACEVTHQGLSSPVTKSFNRGEC
# notes: mutation in both H chains; also called Ho Ab S298_20W; S298W
# B2: GpH7-B3 variant S298_19Q/GpL16-k0 (antibody, human IgG1, kappa)
# heavy: not shown
# light: B1 light
# notes: mutation in both H chains; also called Ho Ab S298_19Q; S298Q
# B3: GpH7-B3 variant T335_05P/GpL16-k0 (antibody, human IgG1, kappa)
# heavy: not shown
# light: B1 light
# notes: mutation in both H chains; also called Ho Ab T335_05P; T335P
# B4: GpH7-B3 variant S239_19Q/GpL16-k0 (antibody, human IgG1, kappa)
# heavy: not shown
# light: B1 light
# notes: mutation in both H chains; also called Ho Ab S239_19Q; S239Q
# B5: GpH7-B3 variant S298_08L/GpL16-k0 (antibody, human IgG1, kappa)
# heavy: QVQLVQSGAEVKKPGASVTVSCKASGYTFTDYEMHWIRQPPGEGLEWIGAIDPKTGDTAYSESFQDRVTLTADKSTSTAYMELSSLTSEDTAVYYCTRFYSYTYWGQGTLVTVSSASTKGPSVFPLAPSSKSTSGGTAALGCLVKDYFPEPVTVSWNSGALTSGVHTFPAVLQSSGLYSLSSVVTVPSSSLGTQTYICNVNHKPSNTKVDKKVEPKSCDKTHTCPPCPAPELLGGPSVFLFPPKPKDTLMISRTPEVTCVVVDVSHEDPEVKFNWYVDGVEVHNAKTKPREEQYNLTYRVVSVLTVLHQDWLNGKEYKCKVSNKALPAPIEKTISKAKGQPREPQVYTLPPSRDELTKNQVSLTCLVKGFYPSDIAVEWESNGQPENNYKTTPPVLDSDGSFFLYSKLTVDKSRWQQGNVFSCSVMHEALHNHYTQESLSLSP
# light: B1 light
# notes: mutation in both H chains; also called Ho Ab S298_08L; S298L
# B6: GpH7-B3 variant V266_19Q/GpL16-k0 (antibody, human IgG1, kappa)
# heavy: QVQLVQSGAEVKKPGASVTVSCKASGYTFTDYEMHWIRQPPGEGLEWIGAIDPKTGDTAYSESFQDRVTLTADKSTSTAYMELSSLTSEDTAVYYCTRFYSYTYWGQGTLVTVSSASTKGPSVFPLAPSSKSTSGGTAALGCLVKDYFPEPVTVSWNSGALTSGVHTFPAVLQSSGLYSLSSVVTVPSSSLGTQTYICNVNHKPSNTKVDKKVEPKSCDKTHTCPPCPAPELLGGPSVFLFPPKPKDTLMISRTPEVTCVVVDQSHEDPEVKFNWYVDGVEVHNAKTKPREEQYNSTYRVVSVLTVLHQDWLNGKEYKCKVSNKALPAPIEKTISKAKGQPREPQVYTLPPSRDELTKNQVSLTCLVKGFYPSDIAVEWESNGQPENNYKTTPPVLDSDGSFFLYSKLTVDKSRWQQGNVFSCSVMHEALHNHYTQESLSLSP
# light: B1 light
# notes: mutation in both H chains; also called Ho Ab V266_19Q; V266Q
# B7: GpH7-B3 variant T335_04F/GpL16-k0 (antibody, human IgG1, kappa)
# heavy: not shown
# light: B1 light
# notes: mutation in both H chains; also called Ho Ab T335_04F; T335F
# B8: GpH7-B3 variant T335_06M/GpL16-k0 (antibody, human IgG1, kappa)
# heavy: not shown
# light: B1 light
# notes: mutation in both H chains; also called Ho Ab T335_06M; T335M
# B9: GpH7-B3 variant S337_08L/GpL16-k0 (antibody, human IgG1, kappa)
# heavy: not shown
# light: B1 light
# notes: mutation in both H chains; also called Ho Ab S337_08L; S337L
# B10: GpH7-B3 variant S239_18N/GpL16-k0 (antibody, human IgG1, kappa)
# heavy: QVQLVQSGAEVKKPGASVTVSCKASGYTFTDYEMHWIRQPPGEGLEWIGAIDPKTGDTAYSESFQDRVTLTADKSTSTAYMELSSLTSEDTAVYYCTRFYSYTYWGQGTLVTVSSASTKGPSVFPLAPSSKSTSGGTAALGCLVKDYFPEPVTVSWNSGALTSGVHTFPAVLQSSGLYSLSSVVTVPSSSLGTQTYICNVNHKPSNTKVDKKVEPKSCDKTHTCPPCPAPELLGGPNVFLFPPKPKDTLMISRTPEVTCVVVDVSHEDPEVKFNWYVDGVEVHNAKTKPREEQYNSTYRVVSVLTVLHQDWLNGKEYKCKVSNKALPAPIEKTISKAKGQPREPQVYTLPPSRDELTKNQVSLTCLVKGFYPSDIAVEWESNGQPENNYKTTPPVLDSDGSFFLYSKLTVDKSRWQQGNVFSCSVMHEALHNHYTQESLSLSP
# light: B1 light
# notes: mutation in both H chains; also called Ho Ab S239_18N; S239N
# B11: GpH7-B3 variant S324_18N/GpL16-k0 (antibody, human IgG1, kappa)
# heavy: not shown
# light: B1 light
# notes: mutation in both H chains; also called Ho Ab S324_18N; S324N
# B12: GpH7-B3 variant S267_08L/GpL16-k0 (antibody, human IgG1, kappa)
# heavy: not shown
# light: B1 light
# notes: mutation in both H chains; also called Ho Ab S267_08L; S267L
# B13: GpH7-B3 variant S337_15Y/GpL16-k0 (antibody, human IgG1, kappa)
# heavy: not shown
# light: B1 light
# notes: mutation in both H chains; also called Ho Ab S337_15Y; S337Y
# B14: GpH7-B3 variant S337_03V/GpL16-k0 (antibody, human IgG1, kappa)
# heavy: not shown
# light: B1 light
# notes: mutation in both H chains; also called Ho Ab S337_03V; S337V
# B15: GpH7-B3 variant S298_12R/GpL16-k0 (antibody, human IgG1, kappa)
# heavy: not shown
# light: B1 light
# notes: mutation in both H chains; also called Ho Ab S298_12R; S298R
# B16: GpH7-B3 variant S298_07I/GpL16-k0 (antibody, human IgG1, kappa)
# heavy: not shown
# light: B1 light
# notes: mutation in both H chains; also called Ho Ab S298_07I; S298I
# B17: GpH7-B3 variant S298_16H/GpL16-k0 (antibody, human IgG1, kappa)
# heavy: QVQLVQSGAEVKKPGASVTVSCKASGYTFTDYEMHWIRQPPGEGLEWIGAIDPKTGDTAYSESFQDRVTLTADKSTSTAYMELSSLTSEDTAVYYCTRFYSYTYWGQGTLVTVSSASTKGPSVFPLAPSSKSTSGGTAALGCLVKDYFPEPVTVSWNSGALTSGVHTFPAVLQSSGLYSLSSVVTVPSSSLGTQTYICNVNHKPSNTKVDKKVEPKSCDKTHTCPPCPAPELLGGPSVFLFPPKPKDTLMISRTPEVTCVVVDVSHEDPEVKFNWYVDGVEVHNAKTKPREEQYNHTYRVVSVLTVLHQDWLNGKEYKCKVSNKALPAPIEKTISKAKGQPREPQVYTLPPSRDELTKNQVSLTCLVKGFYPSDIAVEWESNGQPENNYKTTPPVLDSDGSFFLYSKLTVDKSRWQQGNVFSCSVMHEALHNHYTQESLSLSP
# light: B1 light
# notes: mutation in both H chains; also called Ho Ab S298_16H; S298H
# B18: GpH7-B3 variant S267_01G/GpL16-k0 (antibody, human IgG1, kappa)
# heavy: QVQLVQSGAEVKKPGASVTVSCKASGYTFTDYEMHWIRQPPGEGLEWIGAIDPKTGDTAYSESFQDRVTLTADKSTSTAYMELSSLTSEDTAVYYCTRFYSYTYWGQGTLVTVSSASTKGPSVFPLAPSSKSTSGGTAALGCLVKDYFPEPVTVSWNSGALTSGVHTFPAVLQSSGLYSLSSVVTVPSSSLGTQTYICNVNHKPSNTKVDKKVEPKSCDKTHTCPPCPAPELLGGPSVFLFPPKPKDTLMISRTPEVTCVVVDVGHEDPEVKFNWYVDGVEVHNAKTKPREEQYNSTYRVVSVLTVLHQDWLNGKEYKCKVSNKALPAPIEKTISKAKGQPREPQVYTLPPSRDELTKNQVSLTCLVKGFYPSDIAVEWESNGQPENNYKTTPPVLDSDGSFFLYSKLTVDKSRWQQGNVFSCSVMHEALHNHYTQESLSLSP
# light: B1 light
# notes: mutation in both H chains; also called Ho Ab S267_01G; S267G
# B19: GpH7-B3 variant T335_07I/GpL16-k0 (antibody, human IgG1, kappa)
# heavy: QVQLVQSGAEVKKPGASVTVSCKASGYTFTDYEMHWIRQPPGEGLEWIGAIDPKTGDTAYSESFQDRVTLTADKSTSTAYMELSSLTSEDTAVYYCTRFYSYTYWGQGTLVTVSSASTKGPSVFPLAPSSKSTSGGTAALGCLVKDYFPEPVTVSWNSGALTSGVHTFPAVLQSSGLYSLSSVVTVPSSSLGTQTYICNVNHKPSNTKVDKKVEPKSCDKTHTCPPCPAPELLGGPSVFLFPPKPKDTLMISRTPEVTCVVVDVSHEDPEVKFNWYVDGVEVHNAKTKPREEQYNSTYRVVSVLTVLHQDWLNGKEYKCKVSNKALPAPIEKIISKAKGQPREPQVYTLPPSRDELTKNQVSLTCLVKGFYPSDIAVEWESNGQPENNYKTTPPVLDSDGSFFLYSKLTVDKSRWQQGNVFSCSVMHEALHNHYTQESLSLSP
# light: B1 light
# notes: mutation in both H chains; also called Ho Ab T335_07I; T335I
# B20: GpH7-B3 variant S267_02A/GpL16-k0 (antibody, human IgG1, kappa)
# heavy: not shown
# light: B1 light
# notes: mutation in both H chains; also called Ho Ab S267_02A; S267A
# B21: GpH7-B3 variant T335_08L/GpL16-k0 (antibody, human IgG1, kappa)
# heavy: not shown
# light: B1 light
# notes: mutation in both H chains; also called Ho Ab T335_08L; T335L
# B22: GpH7-B3 variant S324_03V/GpL16-k0 (antibody, human IgG1, kappa)
# heavy: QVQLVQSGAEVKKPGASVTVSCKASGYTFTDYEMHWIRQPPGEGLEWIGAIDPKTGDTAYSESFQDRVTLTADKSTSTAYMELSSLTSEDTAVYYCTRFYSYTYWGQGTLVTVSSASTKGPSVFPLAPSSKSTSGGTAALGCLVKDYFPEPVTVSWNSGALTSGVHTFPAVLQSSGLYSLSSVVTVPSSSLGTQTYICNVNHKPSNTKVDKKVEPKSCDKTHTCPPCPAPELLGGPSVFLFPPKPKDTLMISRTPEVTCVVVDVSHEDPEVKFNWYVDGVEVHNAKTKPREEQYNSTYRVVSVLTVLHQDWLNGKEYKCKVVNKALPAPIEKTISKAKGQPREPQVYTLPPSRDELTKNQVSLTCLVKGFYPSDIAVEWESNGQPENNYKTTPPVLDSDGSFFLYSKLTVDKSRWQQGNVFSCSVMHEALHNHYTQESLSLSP
# light: B1 light
# notes: mutation in both H chains; also called Ho Ab S324_03V; S324V
# B23: GpH7-B3 variant S337_01G/GpL16-k0 (antibody, human IgG1, kappa)
# heavy: not shown
# light: B1 light
# notes: mutation in both H chains; also called Ho Ab S337_01G; S337G
# B24: GpH7-B3 variant S324_16H/GpL16-k0 (antibody, human IgG1, kappa)
# heavy: not shown
# light: B1 light
# notes: mutation in both H chains; also called Ho Ab S324_16H; S324H
# B25: GpH7-B3 variant S298_01G/GpL16-k0 (antibody, human IgG1, kappa)
# heavy: not shown
# light: B1 light
# notes: mutation in both H chains; also called Ho Ab S298_01G; S298G
# B26: GpH7-B3 variant S337_12R/GpL16-k0 (antibody, human IgG1, kappa)
# heavy: not shown
# light: B1 light
# notes: mutation in both H chains; also called Ho Ab S337_12R; S337R
# B27: GpH7-B3 variant S267_03V/GpL16-k0 (antibody, human IgG1, kappa)
# heavy: not shown
# light: B1 light
# notes: mutation in both H chains; also called Ho Ab S267_03V; S267V
# B28: GpH7-B3 variant S337_07I/GpL16-k0 (antibody, human IgG1, kappa)
# heavy: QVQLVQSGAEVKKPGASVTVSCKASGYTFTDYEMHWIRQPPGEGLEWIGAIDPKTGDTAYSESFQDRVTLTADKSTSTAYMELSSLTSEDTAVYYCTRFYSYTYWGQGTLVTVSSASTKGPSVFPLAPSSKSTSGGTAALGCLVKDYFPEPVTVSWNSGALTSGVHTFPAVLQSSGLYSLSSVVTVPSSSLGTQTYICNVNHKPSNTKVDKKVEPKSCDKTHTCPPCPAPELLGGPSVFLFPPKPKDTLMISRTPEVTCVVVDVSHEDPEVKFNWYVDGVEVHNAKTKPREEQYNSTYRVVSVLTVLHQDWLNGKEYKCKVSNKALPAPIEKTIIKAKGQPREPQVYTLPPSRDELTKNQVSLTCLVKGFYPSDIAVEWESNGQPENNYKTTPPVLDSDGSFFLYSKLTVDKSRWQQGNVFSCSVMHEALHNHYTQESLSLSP
# light: B1 light
# notes: mutation in both H chains; also called Ho Ab S337_07I; S337I
# B29: GpH7-B3 variant S337_20W/GpL16-k0 (antibody, human IgG1, kappa)
# heavy: not shown
# light: B1 light
# notes: mutation in both H chains; also called Ho Ab S337_20W; S337W
# B30: GpH7-B3 variant S324_12R/GpL16-k0 (antibody, human IgG1, kappa)
# heavy: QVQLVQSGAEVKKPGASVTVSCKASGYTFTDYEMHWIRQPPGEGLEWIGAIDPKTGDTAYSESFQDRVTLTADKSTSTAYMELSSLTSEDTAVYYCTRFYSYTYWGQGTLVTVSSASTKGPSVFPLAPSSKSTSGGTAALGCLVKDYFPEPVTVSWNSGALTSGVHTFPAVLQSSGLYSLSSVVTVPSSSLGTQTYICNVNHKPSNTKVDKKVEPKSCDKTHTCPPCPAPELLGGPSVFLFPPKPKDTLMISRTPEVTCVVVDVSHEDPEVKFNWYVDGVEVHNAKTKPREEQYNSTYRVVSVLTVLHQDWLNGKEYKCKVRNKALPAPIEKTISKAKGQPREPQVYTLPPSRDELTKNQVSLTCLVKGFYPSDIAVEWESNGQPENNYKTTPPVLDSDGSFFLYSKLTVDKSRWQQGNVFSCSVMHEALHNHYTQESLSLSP
# light: B1 light
# notes: mutation in both H chains; also called Ho Ab S324_12R; S324R
# B31: GpH7-B3 variant S298_10E/GpL16-k0 (antibody, human IgG1, kappa)
# heavy: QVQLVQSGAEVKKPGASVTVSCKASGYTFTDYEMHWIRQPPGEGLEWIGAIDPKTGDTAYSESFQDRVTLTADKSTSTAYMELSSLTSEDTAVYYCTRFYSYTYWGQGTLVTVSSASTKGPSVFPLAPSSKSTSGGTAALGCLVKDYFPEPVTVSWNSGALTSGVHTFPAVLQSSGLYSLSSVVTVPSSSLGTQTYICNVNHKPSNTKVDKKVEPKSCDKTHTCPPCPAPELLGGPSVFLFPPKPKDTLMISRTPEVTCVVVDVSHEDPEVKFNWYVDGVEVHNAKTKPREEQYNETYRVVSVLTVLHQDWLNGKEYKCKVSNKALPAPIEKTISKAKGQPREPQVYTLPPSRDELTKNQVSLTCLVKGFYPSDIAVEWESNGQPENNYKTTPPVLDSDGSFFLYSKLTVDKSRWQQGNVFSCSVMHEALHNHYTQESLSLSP
# light: B1 light
# notes: mutation in both H chains; also called Ho Ab S298_10E; S298E
# Molecular target: T1, FcγRIa extracellular domain with C-terminal His tag (human, UniProt P12314 16-292)
# T1 construct: extracellular domain; also called FcgRI; CD64; not shown: His tag at the C terminus
# T1 sequence (P12314 16-292): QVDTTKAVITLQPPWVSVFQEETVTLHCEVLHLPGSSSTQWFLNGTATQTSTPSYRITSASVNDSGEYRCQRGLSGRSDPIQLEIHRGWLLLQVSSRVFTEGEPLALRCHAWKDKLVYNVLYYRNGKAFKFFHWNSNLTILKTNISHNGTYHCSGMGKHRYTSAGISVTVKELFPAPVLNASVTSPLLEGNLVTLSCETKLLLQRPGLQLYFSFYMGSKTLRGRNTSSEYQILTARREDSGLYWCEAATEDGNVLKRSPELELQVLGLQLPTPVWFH
# Experiment: SPR Biacore, relative FcγRIa binding vs GpH7-B3/GpL16-k0
row,Ho/Con_1a,Binder
1,71.5 % of HoCon Ab (=100),B1
2,105 % of HoCon Ab (=100),B2
3,106 % of HoCon Ab (=100),B3
4,93.4 % of HoCon Ab (=100),B4
5,104 % of HoCon Ab (=100),B5
6,91.2 % of HoCon Ab (=100),B6
7,105 % of HoCon Ab (=100),B7
8,106 % of HoCon Ab (=100),B8
9,105 % of HoCon Ab (=100),B9
10,97.9 % of HoCon Ab (=100),B10
11,111 % of HoCon Ab (=100),B11
12,99.9 % of HoCon Ab (=100),B12
13,104 % of HoCon Ab (=100),B13
14,105 % of HoCon Ab (=100),B14
15,94.5 % of HoCon Ab (=100),B15
16,103 % of HoCon Ab (=100),B16

row,Ho/Con_1a,Binder
1,107 % of HoCon Ab (=100),B17
2,102 % of HoCon Ab (=100),B18
3,105 % of HoCon Ab (=100),B19
4,108 % of HoCon Ab (=100),B20
5,105 % of HoCon Ab (=100),B21
6,103 % of HoCon Ab (=100),B22
7,102 % of HoCon Ab (=100),B23
8,111 % of HoCon Ab (=100),B24
9,103 % of HoCon Ab (=100),B25
10,105 % of HoCon Ab (=100),B26
11,102 % of HoCon Ab (=100),B27
12,105 % of HoCon Ab (=100),B28
13,104 % of HoCon Ab (=100),B29
14,101 % of HoCon Ab (=100),B30
15,106 % of HoCon Ab (=100),B31
